Molecular target: T1, human TMEM192 with a C-terminally fused HA epitope (human), Q8IY95
T1 chain: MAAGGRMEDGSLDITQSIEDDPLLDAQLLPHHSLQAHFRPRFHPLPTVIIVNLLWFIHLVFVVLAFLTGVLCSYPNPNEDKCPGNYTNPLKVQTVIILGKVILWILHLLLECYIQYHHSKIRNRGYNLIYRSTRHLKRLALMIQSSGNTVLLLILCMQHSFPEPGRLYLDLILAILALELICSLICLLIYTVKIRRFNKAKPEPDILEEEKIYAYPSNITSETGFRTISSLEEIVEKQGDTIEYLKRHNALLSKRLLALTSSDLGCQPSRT
Assay: non-reducing SDS-PAGE and Western blot; total lysates of transiently transfected HeLa cells denatured 5 min at 95°C in the absence of DTT; detection with anti-HA antibody 3F10; shows only disulphide-linked dimers
Details: remark: other sources report otherwise

stoichiometry N: 2
B1: human TMEM192 with a C-terminally fused HA epitope, Q8IY95 1-271 (natural protein)
chain: T1 chain

Source: publication PMC5546430
